Measured values: publication PMC6169833

B1: Nup153-N wild type (1- to 608-amino-acid N-terminal construct of Nup153), C-terminally Flag-tagged [human] / endogenous Nup107 [human (endogenous in HEK293T)] (parent)
chain 1: MASGAGGVGGGGGGKIRTRRCHQGPIKPYQQGRQQHQGILSRVTESVKNIVPGWLQRYFNKNEDVCSCSTDTSEVPRWPENKEDHLVYADEESSNITDGRITPEPAVSNTEEPSTTSTASNYPDVLTRPSLHRSHLNFSMLESPALHCQPSTSSAFPIGSSGFSLVKEIKDSTSQHDDDNISTTSGFSSRASDKDITVSKNTSLPPLWSPEAERSHSLSQHTATSSKKPAFNLSAFGTLSPSLGNSSILKTSQLGDSPFYPGKTTYGGAAAAVRQSKLRNTPYQAPVRRQMKAKQLSAQSYGVTSSTARRILQSLEKMSSPLADAKRIPSIVSSPLNSPLDRSGIDITDFQAKREKVDSQYPPVQRLMTPKPVSIATNRSVYFKPSLTPSGEFRKTNQRIDNKCSTGYEKNMTPGQNREQRESGFSYPNFSLPAANGLSSGVGGGGGKMRRERTRFVASKPLEEEEMEVPVLPKISLPITSSSLPTFNFSSPEITTSSPSPINSSQALTNKVQMTSPSSTGSPMFKFSSPIVKSTEANVLPPSSIGFTFSVPVAKTAELSGSSSTLEPIISSSAHHVTTVNSTNCKKTPPEDCEGPFRPAEILKEGSV
chain 2: MDRSGFGEISSPVIREAEVTRTARKQSAQKRVLLQASQDENFGNTTPRNQVIPRTPSSFRQPFTPTSRSLLRQPDISCILGTGGKSPRLTQSSGFFGNLSMVTNLDDSNWAAAFSSQRSGLFTNTEPHSITEDVTISAVMLREDDPGEAASMSMFSDFLQSFLKHSSSTVFDLVEEYENICGSQVNILSKIVSRATPGLQKFSKTASMLWLLQQEMVTWRLLASLYRDRIQSALEEESVFAVTAVNASEKTVVEALFQRDSLVRQSQLVVDWLESIAKDEIGEFSDNIEFYAKSVYWENTLHTLKQRQLTSYVGSVRPLVTELDPDAPIRQKMPLDDLDREDEVRLLKYLFTLIRAGMTEEAQRLCKRCGQAWRAATLEGWKLYHDPNVNGGTELEPVEGNPYRRIWKISCWRMAEDELFNRYERAIYAALSGNLKQLLPVCDTWEDTVWAYFRVMVDSLVEQEIQTSVATLDETEELPREYLGANWTLEKVFEELQATDKKRVLEENQEHYHIVQKFLILGDIDGLMDEFSKWLSKSRNNLPGHLLRFMTHLILFFRTLGLQTKEEVSIEVLKTYIQLLIREKHTNLIAFYTCHLPQDLAVAQYALFLESVTEFEQRHHCLELAKEADLDVATITKTVVENIRKKDNGEFSHHDLAPALDTGTTEEDRLKIDVIDWLVFDPAQRAEALKQGNAIMRKFLASKKHEAAKEVFVKIPQDSIAEIYNQCEEQGMESPLPAEDDNAIREHLCIRAYLEAHETFNEWFKHMNSVPQKPALIPQPTFTEKVAHEHKEKKYEMDFGIWKGHLDALTADVKEKMYNVLLFVDGGWMVDVREDAKEDHERTHQMVLLRKLCLPMLCFLLHTILHSTGQYQECLQLADMVSSERHKLYLVFSKEELRKLLQKLRESSLMLLDQGLDPLGYEIQL

Variants of: B1
Assay: Flag immunoprecipitation and Western blotting, quantified with ImageJ
Details: HEK293T cells transfected with Nup153-N constructs, harvested 72 h after transfection, parent: 1, read off a plot
chain 1 S516E S518E S519E S522E showed a ratio to parent of 0.57.
